Laboratory results from US6579698.
Substitutions are numbered along the chain they refer to. In names and notes the source's numbering stands. Values belong to the binder of their own block, whether it stands above or below them.

Legend:
[1] = target: protease (not named in the Ki determination); assay: enzyme inhibition kinetics with succinyl-Ala-Ala-Pro-Phe-p-nitroanilide in 50 mM Tris pH 8; steady-state rate against the rate without inhibitor; equations of Goldstein
[2] = target: T1, Streptomyces Subtilisin Inhibitor (SSI), SSI-like protein produced by PG1181
T1 chain: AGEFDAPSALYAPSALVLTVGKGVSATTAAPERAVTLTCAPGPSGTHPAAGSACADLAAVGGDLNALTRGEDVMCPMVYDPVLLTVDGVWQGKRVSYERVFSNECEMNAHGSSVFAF

Ki [1]: 3 nM
B1: M73P D83C SSI (protein)
chain: T1 chain with M77P, D87C

B2: subtilisin BPN′ (protein)
chain: AQSVPYGVSQIKAPALHSQGYTGSNVKVAVIDSGIDSSHPDLKVAGGASMVPSETNPFQDNNSHGTHVAGTVAALNNSIGVLGVAPSASLYAVKVLGADGSGQYSWIINGIEWAIANNMDVINMSLGGPSGSAALKAAVDKAVASGVVVVAAAGNEGTSGSSSTVGYPGKYPSVIAVGAVDSSNQRASFSSVGPELDVMAPGVSIQSTLPGNKYGAYNGTSMASPHVAGAAALILSKHPNWTNTQVRSSLENTTTKLGDSFYYGKGLINVQAAAQ
protease activity (hydrolysis of N-succinyl-Ala-Ala-Pro-Phe-p-nitroanilide, increase in absorbance at 410 nm) [2]: SSI inhibits subtilisin BPN′ and a Y217L variant of BPN′

B3: Y217L variant of subtilisin BPN′ (protein)
chain: B2 chain with Y217L
protease activity (hydrolysis of N-succinyl-Ala-Ala-Pro-Phe-p-nitroanilide, increase in absorbance at 410 nm) [2]: SSI inhibits subtilisin BPN′ and a Y217L variant of BPN′
